T1: Gnd1 (6PGDH/Gnd1) (Saccharomyces cerevisiae, UniProt P38720)
T1 construct: full length, 489 residues; pET28a-derived vector, E. coli Rosetta (DE3); homodimer; residues 1-476 seen in crystal
T1 sequence (P38720 1-489): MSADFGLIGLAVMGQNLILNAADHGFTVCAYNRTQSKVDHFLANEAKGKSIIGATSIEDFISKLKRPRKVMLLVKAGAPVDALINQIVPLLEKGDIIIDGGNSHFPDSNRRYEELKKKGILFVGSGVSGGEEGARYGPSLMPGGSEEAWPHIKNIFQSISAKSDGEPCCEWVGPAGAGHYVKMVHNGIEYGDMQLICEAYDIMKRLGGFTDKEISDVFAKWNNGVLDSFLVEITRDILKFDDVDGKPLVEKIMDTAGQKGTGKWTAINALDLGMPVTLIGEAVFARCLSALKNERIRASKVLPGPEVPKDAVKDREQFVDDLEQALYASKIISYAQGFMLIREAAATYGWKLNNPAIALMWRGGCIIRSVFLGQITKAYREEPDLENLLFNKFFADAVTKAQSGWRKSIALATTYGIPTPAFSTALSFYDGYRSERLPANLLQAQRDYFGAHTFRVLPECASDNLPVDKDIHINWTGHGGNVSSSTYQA

B1: Gnd1ΔC39 (domain or fragment, S. cerevisiae, UniProt P38720 1-450, looked up)
chain: MSADFGLIGLAVMGQNLILNAADHGFTVCAYNRTQSKVDHFLANEAKGKSIIGATSIEDFISKLKRPRKVMLLVKAGAPVDALINQIVPLLEKGDIIIDGGNSHFPDSNRRYEELKKKGILFVGSGVSGGEEGARYGPSLMPGGSEEAWPHIKNIFQSISAKSDGEPCCEWVGPAGAGHYVKMVHNGIEYGDMQLICEAYDIMKRLGGFTDKEISDVFAKWNNGVLDSFLVEITRDILKFDDVDGKPLVEKIMDTAGQKGTGKWTAINALDLGMPVTLIGEAVFARCLSALKNERIRASKVLPGPEVPKDAVKDREQFVDDLEQALYASKIISYAQGFMLIREAAATYGWKLNNPAIALMWRGGCIIRSVFLGQITKAYREEPDLENLLFNKFFADAVTKAQSGWRKSIALATTYGIPTPAFSTALSFYDGYRSERLPANLLQAQRDYFG
notes: 6-phosphogluconate dehydrogenase Gnd1, S. cerevisiae, ORF YHR183W/GND1, residues 1-450 of 489 (C-terminal 39 residues deleted); Cloned into the pET28a-derived vector and purified as the full-length protein; also called Gnd1 without the C-terminal 39 residues; source: E. coli Rossetta (DE3), purified (Ni2+ chromatography, Superdex 200 gel filtration)
B2: Saccharomyces cerevisiae 6-phosphogluconate dehydrogenase Gnd1 (enzyme, S. cerevisiae, UniProt P38720 1-489, looked up)
chain: T1 sequence (P38720 1-489)
notes: 6-phosphogluconate dehydrogenase Gnd1, S. cerevisiae strain S288C, ORF YHR183W/GND1, 489 residues; residues 1-476 are seen in the crystal structure; The asymmetric unit holds one monomer (final model 1-476 for one monomer); the dimer is described as the biological unit; also called 6PGDH/Gnd1; 6PGDH
B3: Gnd1ΔC35 (domain or fragment, S. cerevisiae, UniProt P38720 1-454, looked up)
chain: MSADFGLIGLAVMGQNLILNAADHGFTVCAYNRTQSKVDHFLANEAKGKSIIGATSIEDFISKLKRPRKVMLLVKAGAPVDALINQIVPLLEKGDIIIDGGNSHFPDSNRRYEELKKKGILFVGSGVSGGEEGARYGPSLMPGGSEEAWPHIKNIFQSISAKSDGEPCCEWVGPAGAGHYVKMVHNGIEYGDMQLICEAYDIMKRLGGFTDKEISDVFAKWNNGVLDSFLVEITRDILKFDDVDGKPLVEKIMDTAGQKGTGKWTAINALDLGMPVTLIGEAVFARCLSALKNERIRASKVLPGPEVPKDAVKDREQFVDDLEQALYASKIISYAQGFMLIREAAATYGWKLNNPAIALMWRGGCIIRSVFLGQITKAYREEPDLENLLFNKFFADAVTKAQSGWRKSIALATTYGIPTPAFSTALSFYDGYRSERLPANLLQAQRDYFGAHTF
notes: 6-phosphogluconate dehydrogenase Gnd1, S. cerevisiae, ORF YHR183W/GND1, residues 1-454 of 489 (C-terminal 35 residues deleted); Cloned into the pET28a-derived vector and purified as the full-length protein; also called Gnd1 without the C-terminal 35 residues; source: E. coli Rossetta (DE3), purified (Ni2+ chromatography, Superdex 200 gel filtration)
B4: Gnd1ΔC53 (domain or fragment, S. cerevisiae, UniProt P38720 1-436, looked up)
chain: MSADFGLIGLAVMGQNLILNAADHGFTVCAYNRTQSKVDHFLANEAKGKSIIGATSIEDFISKLKRPRKVMLLVKAGAPVDALINQIVPLLEKGDIIIDGGNSHFPDSNRRYEELKKKGILFVGSGVSGGEEGARYGPSLMPGGSEEAWPHIKNIFQSISAKSDGEPCCEWVGPAGAGHYVKMVHNGIEYGDMQLICEAYDIMKRLGGFTDKEISDVFAKWNNGVLDSFLVEITRDILKFDDVDGKPLVEKIMDTAGQKGTGKWTAINALDLGMPVTLIGEAVFARCLSALKNERIRASKVLPGPEVPKDAVKDREQFVDDLEQALYASKIISYAQGFMLIREAAATYGWKLNNPAIALMWRGGCIIRSVFLGQITKAYREEPDLENLLFNKFFADAVTKAQSGWRKSIALATTYGIPTPAFSTALSFYDGYRSER
notes: 6-phosphogluconate dehydrogenase Gnd1, S. cerevisiae, ORF YHR183W/GND1, residues 1-436 of 489 (C-terminal 53 residues, the entire C-terminal tail, deleted); Cloned into the pET28a-derived vector and purified as the full-length protein; also called Gnd1 without the C-terminal 53 residues; source: E. coli Rossetta (DE3), purified (Ni2+ chromatography, Superdex 200 gel filtration)

Key:
Gnd1 (6PGDH/Gnd1) = target: T1, Gnd1 (6PGDH/Gnd1); experiment: X-ray crystal structure, […] Å; format: binding; settings: crystallised from 1.28 M tri-sodium citrate pH 6.5; two citrates per monomer in the 6-phosphogluconate site, contacts from both chains
[1] = target: the molecule itself; experiment: SEC; dimer found 'through purification and crystallization'; purification by Ni2+ chromatography and gel filtration on Superdex 200 (20 mM Tris-HCl pH 8.0, 200 mM NaCl, 20 mM β-mercaptoethanol); 'homodimer in solution'
purified protein = substrate: NC(=O)c1ccc[n+]([C@@H]2O[C@H](COP(=O)(O)OP(=O)(O)OC[C@H]3O[C@@H](n4cnc5c(N)ncnc54)[C@H](OP(=O)(O)O)[C@@H]3O)[C@@H](O)[C@H]2O)c1; experiment: purified protein; settings: co-substrate 6-phosphogluconate (0.1-0.5 mM, varied), Gly-Gly 50 mM pH 7.5, MgCl2 10 mM, 28°C, ionic strength 0.03
[2] = target: the molecule itself; experiment: crystal structure; hanging-drop vapour diffusion at 15°C, 1.28 M tri-sodium citrate pH 6.5; 2.37 Å, molecular replacement; two citrate molecules bound to each monomer

| Molecule | stoichiometry N [1] | further results |
| --- | --- | --- |
| O=C(O)CC(O)(CC(=O)O)C(=O)O [citrate] | – | X-ray crystal structure, 2.37 Å (Gnd1 (6PGDH/Gnd1)): two citrate molecules were bound to the active site of each Gnd1 monomer |
| B1 | 2 | – |
| B2 | – | Km (purified protein): 35 ± 6 µM; stoichiometry N [2]: 2 |
| B3 | 2 | – |
| B4 | 2 | – |

— article PMC1919378 (BMC Structural Biology, 2007)
